Test results published in publication PMC8885411, “Engineered ACE2 decoy mitigates lung injury and death induced by SARS-CoV-2 variants” (Nature Chemical Biology, 2022).

B1: REGN10987 (antibody, V domains shown)
VH: QVQLVESGGGVVQPGRSLRLSCAASGFTFSNYAMYWVRQAPGKGLEWVAVISYDGSNKYYADSVKGRFTISRDNSKNTLYLQMNSLRTEDTAVYYCASGSDYGDYLLVYWGQGTLVTVSS
VL: QSALTQPASVSGSPGQSITISCTGTSSDVGGYNYVSWYQQHPGKAPKLMIYDVSKRPSGVSNRFSGSKSGNTASLTISGLQSEDEADYYCNSLTSISTWVFGGGTKLTVL
notes: also called imdevimab
B2: REGN10933 (antibody, V domains shown)
VH: QVQLVESGGGLVKPGGSLRLSCAASGFTFSDYYMSWIRQAPGKGLEWVSYITYSGSTIYYADSVKGRFTISRDNAKSSLYLQMNSLRAEDTAVYYCARDRGTTMVPFDYWGQGTLVTVSS
VL: DIQMTQSPSSLSASVGDRVTITCQASQDITNYLNWYQQKPGKAPKLLIYAASNLETGVPSRFSGSGSGTDFTFTISGLQPEDIATYYCQQYDNLPLTFGGGTKVEIK
notes: also called casirivimab

Target: T1, SARS-CoV-1 S protein with C-terminal C9 tag (SARS-CoV-1 (Severe acute respiratory …, UniProt P59594))
T1 construct: also called S protein of SARS-CoV-1; SARS-spike
Test: flow cytometry on cells
Conditions: one partner purified

Binder	binding result
B1	no binding
B2	no binding
